How the values were obtained:
[1] = target: T1, PAR3 (Homo sapiens, UniProt O00254); test: Caspase 1 activity assay in THP1 cells after blocking PAR3 with monoclonal antibody clone 19b; type: cell-based; conditions: clone 19b 25 μg/mL for 30 minutes before APC 4 μg/mL, TR47 50 μM or P3R 50 μM
T1 construct: mouse monoclonal antibody to PAR3, clone 19b (clonel9b; 25 μg/mL) for 30 minutes; endogenous in cells; host or cells: THP1-null (wildtype) cells, PMA-differentiated
T1 sequence (O00254 22-374): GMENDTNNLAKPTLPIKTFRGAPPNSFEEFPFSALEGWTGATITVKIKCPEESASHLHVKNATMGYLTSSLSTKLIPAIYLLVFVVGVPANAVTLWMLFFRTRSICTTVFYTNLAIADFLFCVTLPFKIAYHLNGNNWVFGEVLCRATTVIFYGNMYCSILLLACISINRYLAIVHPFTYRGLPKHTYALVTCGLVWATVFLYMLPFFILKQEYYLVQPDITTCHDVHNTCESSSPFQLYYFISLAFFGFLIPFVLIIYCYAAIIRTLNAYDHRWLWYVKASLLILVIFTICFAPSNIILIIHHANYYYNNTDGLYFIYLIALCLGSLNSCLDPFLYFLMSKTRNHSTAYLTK
Method: THP1 or (A) NLRP3 deficient cells (THP1-defNLRP3) cells were plated at a final concentration of 1×10^6/mL in 96 well plates and incubated with PMA (0.5 μM) for 3 hours 37° C. in supplemented RPMI. Media was subsequently changed every 24 hours for 3 days. In brief, selected wells were treated with APC (4 μg/mL), TR47 (50 μM) or P3R (50 μM) for 1 hour, washed with DPBS, and incubated with LPS (1 μg/mL) for 3 hours at 37° C. in serum-free RPMI. After a DPBS wash, cells were incubated with ATP (5 mM) in the presence or absence of 10 μM YVAD (caspase 1 inhibitor) or 2.5 μM ZVAD (pan-caspase inhibitor) for 45 minutes at 37° C. […] Again, cells were washed with DPBS and incubated with ATP (5 mM) in the presence or absence of 10 μM YVAD (caspase 1 inhibitor) or 2.5 μM ZVAD (pan-caspase inhibitor) for 45 minutes prior to performing the caspase 1 activity following manufacturer's directions measuring luminescence. […] After a DPBS wash, cells were incubated with ATP (5 mM) in the presence or absence of 10 μM YVAD (caspase 1 inhibitor) or 2.5 μM ZVAD (pan-caspase inhibitor) for 45 minutes at 37° C., prior to performing the caspase 1 activity assay following manufacturer's directions measuring luminescence (relative luminescent units, RLU). […]

[2] = target: T2, PAR1 (Homo sapiens, UniProt P25116); test: Caspase 1 activity assay in THP1 cells after inhibition of PAR1 (WEDE15, ATAP2, SCH79797); type: cell-based; conditions: TR47 50 μM or P3R 50 μM; for effect of PAR1 blocking antibody ATAP2 on reduction of caspase 1 activity: ATAP2 10 μg/mL for 15 minutes before APC 4 μg/mL; for effect of PAR1 small molecule antagonist SCH79797 on reduction of caspase 1 activity: SCH79797 20 μM for 20 minutes before APC 4 μg/mL; for effect of PAR1 blocking antibody WEDE15 on reduction of caspase 1 activity: WEDE15 20 μg/mL for 15 minutes before APC 4 μg/mL
T2 construct: endogenous in cells; host or cells: THP1-null (wildtype) cells, PMA-differentiated
T2 sequence (P25116 22-425): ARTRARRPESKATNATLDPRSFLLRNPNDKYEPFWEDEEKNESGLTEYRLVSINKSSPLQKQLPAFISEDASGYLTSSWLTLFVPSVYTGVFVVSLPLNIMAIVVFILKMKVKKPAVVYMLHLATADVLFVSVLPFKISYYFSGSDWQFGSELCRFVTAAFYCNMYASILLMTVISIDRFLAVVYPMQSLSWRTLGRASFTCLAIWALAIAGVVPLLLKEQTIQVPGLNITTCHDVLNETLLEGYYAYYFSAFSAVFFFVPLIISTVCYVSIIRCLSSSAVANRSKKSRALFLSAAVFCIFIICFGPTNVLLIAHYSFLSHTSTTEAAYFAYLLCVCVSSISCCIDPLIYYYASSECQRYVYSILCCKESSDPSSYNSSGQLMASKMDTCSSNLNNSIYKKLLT
Method: THP1 or (A) NLRP3 deficient cells (THP1-defNLRP3) cells were plated at a final concentration of 1×10^6/mL in 96 well plates and incubated with PMA (0.5 μM) for 3 hours 37° C. in supplemented RPMI. Media was subsequently changed every 24 hours for 3 days. In brief, selected wells were treated with APC (4 μg/mL), TR47 (50 μM) or P3R (50 μM) for 1 hour, washed with DPBS, and incubated with LPS (1 μg/mL) for 3 hours at 37° C. in serum-free RPMI. After a DPBS wash, cells were incubated with ATP (5 mM) in the presence or absence of 10 μM YVAD (caspase 1 inhibitor) or 2.5 μM ZVAD (pan-caspase inhibitor) for 45 minutes at 37° C. In (B), after PMA differentiation, select wells were treated with APC (4 μg/mL), TR47 (50 μM) or P3R (50 μM) for 1 hour, washed with DPBS, and incubated with LPS (1 μg/mL) for 3 hours at 37° C. in serum-free RPMI. Cells were washed with DPBS before being treated with the NLRP3 inhibitor MCC950 (10 μM) or DMSO for 30 minutes. Again, cells were washed with DPBS and incubated with ATP (5 mM) in the presence or absence of 10 μM YVAD (caspase 1 inhibitor) or 2.5 μM ZVAD (pan-caspase inhibitor) for 45 minutes prior to performing the caspase 1 activity following manufacturer's directions measuring luminescence. In (C-F) prior to APC, TR47 or P3R treatment, cells were incubated with antibodies or inhibitors. In (C) cell were incubated with the blocking EPCR antibody, RCR-252 (50 μg/mL); (D) mouse monoclonal antibody to PAR3, clone 19b (clonel9b; 25 μg/mL) for 30 minutes. In (E) cells were treated with either mouse monoclonal antibodies to PAR1, WEDE15 (20 μg/mL) or ATAP2 (10 μg/mL) for 15 minutes. In (F) cells were treated with the small molecule PAR1 inhibitor, SCH79797 (SCH; 20 μM) for 20 minutes. Following antibody or small molecule treatments (C-F) selected wells were treated with APC (4 μg/mL), TR47 (50 μM) or P3R (50 μM) for 1 hour, washed with DPBS, and incubated with LPS (1 μg/mL) for 3 hours at 37° C. in serum-free RPMI. After a DPBS wash, cells were incubated with ATP (5 mM) in the presence or absence of 10 μM YVAD (caspase 1 inhibitor) or 2.5 μM ZVAD (pan-caspase inhibitor) for 45 minutes at 37° C., prior to performing the caspase 1 activity assay following manufacturer's directions measuring luminescence (relative luminescent units, RLU). (A-F) Data points represent mean±SD of at least 3 independent experiments. *P<0.05 (vs. LPS+ATP); #P<0.05 (vs. LPS+ATP & APC, TR47 or P3R); ##P<0.005 (vs. LPS+ATP & APC, TR47 or P3R); n.s. not significant.
Caspase 1 assay. THP1-null (wildtype cells) or NLRP3-deficient THP1-(defNLRP3) cells were plated at a final concentration of 1×10^6/mL in 96 well plates and incubated with PMA (0.5 μM) for 3 hours 37° C. in supplemented RPMI. Media was subsequently changed every 24 hours for 3 days. Various subsets of wells were selected and cells were treated for 60 minutes at 37° C. in serum-free RPMI with various concentrations of APC, TR47 or P3R. Following DPBS wash, cells were incubated with LPS (lipopolysaccharide) (1 μg/mL) for 3 hours at 37° C. in serum-free RPMI to prime the inflammasome. After a DPBS wash, to fully activate caspase 1 activity, cells were incubated with ATP (5 mM), in the presence or absence of 10 μM YVAD (caspase 1 inhibitor), and 2.5 μM ZVAD (pan-caspase inhibitor) for 45 minutes at 37° C., prior to performing the caspase 1 activity assay following the manufacturer's (Promega) directions; caspase 1 activity was monitored as luminescence changes due to substrate hydrolysis and reported as relative luminescent units (RLU).^15 In select experiments, caspase 1 activity of experimental conditions were normalized to YVAD (caspase 1 inhibitor) conditions and expressed as normalized caspase 1 activity.

| Sequence | effect of blocking PAR3 on anti-inflammatory activity (caspase 1) [1] | effect of PAR1 blocking antibody ATAP2 on reduction of caspase 1 activity [2] | effect of PAR1 small molecule antagonist SCH79797 on reduction of caspase 1 activity [2] | effect of PAR1 blocking antibody WEDE15 on reduction of caspase 1 activity [2] |
| --- | --- | --- | --- | --- |
| GAPPNSFEEFPFSALEGWTGATIT [P3R, PAR3-derived 24-mer peptide] | very significantly reduced the anti-inflammatory activity | None of the PAR1-targeted inhibitors statistically significantly reduced the anti-inflammatory activity | None of the PAR1-targeted inhibitors statistically significantly reduced the anti-inflammatory activity | None of the PAR1-targeted inhibitors statistically significantly reduced the anti-inflammatory activity |
| NPNDKYEPFWEDEEKNESGL [TR47, PAR1-derived 20 amino acid peptide] | less significantly reduced the activity | not by ATAP2 | inhibited by SCH79797 and WEDE15 | inhibited by SCH79797 and WEDE15 |
